Experimental findings from US7033773B1, “Screening assays for G protein coupled receptor agonists and antagonists” (The General Hospital Corporation, priority 1997, dated 2006) are described below.

One test deals with T1, human PTH/PTHrP receptor (Homo sapiens, UniProt Q03431).
T1 sequence (Q03431 27-593): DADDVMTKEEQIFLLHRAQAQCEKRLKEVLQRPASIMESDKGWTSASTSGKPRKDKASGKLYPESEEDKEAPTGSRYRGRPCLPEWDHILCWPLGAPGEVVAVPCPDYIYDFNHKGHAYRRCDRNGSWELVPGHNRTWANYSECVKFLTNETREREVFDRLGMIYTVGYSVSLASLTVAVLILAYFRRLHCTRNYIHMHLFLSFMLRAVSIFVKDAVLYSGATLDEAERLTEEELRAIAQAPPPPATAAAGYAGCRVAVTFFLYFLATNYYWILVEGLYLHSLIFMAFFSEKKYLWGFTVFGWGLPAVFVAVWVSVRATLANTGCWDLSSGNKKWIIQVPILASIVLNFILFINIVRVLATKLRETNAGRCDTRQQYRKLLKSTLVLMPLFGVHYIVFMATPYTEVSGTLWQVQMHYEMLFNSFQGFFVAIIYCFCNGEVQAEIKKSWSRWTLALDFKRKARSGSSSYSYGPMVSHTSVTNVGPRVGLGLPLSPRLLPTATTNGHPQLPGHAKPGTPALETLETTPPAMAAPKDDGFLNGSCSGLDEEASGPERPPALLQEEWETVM
Kind of test: Cellular cAMP accumulation in LLC-PK1 cells expressing human PTHR. Also on record: transfected with a full-length human PTH/PTHrP receptor cDNA; expressed in transfected cells. In kind it is cell-based. As to conditions: HKRK B28 cells; similar in HKRK B7. On the procedure: (§1) Cells were seeded into 24-well plates at a density of 2.5×10^5 cells/well and cultured for a further 2 days before study. The cells were rinsed once with 0.5 ml of ice-cold Buffer B [10 mM HEPES (pH 7.4), 130 mM NaCl, 5 mM KCl, 1.2 mM CaCl2, 1 mM MgCl2, 1.2 mM Na2HPO^4 5 mM glucose, and 0.1% heat-inactivated BSA] supplemented with 1 mM isobtylmethylxanthine (IBMX), and placed on ice. Treatments were added to each well in 0.25 ml of IBMX-supplemented Buffer B, after which the plates were incubated at 37° C. for 15 min. The buffer then was rapidly aspirated, the plates were rapidly transferred onto liquid nitrogen, and the frozen monolayers were subsequently thawed directly into 0.5 ml of 50 mM HCl. The extracted cAMP then was measured using a commercial RIA kit (Dupont-New England Nuclear, Boston, Mass.). Results were expressed as fold-basal, where basal levels ranged between 38 and 128 pmol/mg protein/15 min. The basal level of cAMP accumulation in native LLC-PK1 cells was not consistently altered in subclones that expressed wild type PTH/PTHrp receptors.
Maximal PTH-dependent cAMP accumulation was assessed in the human PTHR-transfected LLC-PK1 subclones following incubation for 15 min with a high concentration (1000 nM) of hPTH(1-34) (Table 1). As reported previously for LLC-PK1 cells that stably expressed rat PTHRs (Guo, J., et al., Endocrinology 136:3884-3891 (1995)), the maximal adenylyl cyclase response was relatively independent of the surface density of human PTHRs above a relatively low threshold (relative to that required for PLC activation—see below). In the case of the human PTHR, however, this threshold for saturation of maximal AC activation appeared to lie between 120,000 and 280,000 (Table 1), which is at least 6 to 10-fold higher than that previously observed for the rat PTHR (Guo, J., et al., Endocrinology 136:3884-3891 (1995)).
(In general: Cyclic AMP is a second messenger, typically raised through Gs and lowered through Gi signalling.)

Another test addresses T2, rat PTHR (Rattus norvegicus, UniProt P25961).
T2 construct: expressed in transfected cells; host or cells: LLC-PK1 porcine renal epithelial cells (EW5; also EW29, AR-C38, AR-B44)
T2 sequence (P25961 27-591): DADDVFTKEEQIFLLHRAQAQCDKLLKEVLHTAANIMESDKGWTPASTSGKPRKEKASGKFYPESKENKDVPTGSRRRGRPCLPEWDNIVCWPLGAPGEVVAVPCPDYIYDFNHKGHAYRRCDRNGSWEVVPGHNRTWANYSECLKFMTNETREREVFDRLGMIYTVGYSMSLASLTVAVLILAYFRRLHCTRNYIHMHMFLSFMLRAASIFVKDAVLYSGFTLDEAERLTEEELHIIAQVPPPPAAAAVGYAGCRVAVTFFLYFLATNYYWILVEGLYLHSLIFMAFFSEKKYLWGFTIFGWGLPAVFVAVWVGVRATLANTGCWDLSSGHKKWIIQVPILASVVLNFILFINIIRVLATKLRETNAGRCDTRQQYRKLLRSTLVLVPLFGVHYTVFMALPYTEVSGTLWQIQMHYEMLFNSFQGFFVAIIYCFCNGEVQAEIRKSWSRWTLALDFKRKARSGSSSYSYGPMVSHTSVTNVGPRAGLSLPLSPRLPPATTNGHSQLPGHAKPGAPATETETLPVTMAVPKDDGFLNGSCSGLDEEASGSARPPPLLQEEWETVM
Kind of test: Cellular cAMP accumulation in LLC-PK1 cells expressing rat PTHR. In kind it is cell-based. As to conditions: EW5 cells. On the procedure:
FIG. 10. Stimulation of cyclic AMP accumulation by hPTH(1-31) and hPTH(1-34) in LLC-PK1 cells that express rat PTHRs. Cyclic AMP accumulation was measured in response to hPTH(1-34) (●) or hPTH(1-31) (Δ) in EW5 cells that expressed 320,000 rat PTHRs per cell. Results are expressed as fold basal.
as §1

Regarding hPTH(1-31), the “activation of AC (in words)” value with human PTH/PTHrP receptor is reported as “indistinguishable from that to hPTH(1-34)”; with rat PTHR, “activated AC equivalently”.
